Source: article PMC10028610, “A Cold-Active Flavin-Dependent Monooxygenase from Janthinobacterium svalbardensis Unlocks Applications of Baeyer–Villiger Monooxygenases at Low Temperature” (ACS Catalysis, 2023)

B1: JsFMO (Janthinobacterium svalbardense) (protein)
chain: MQTDSNPHDLAVAGILEQLEGCLRASDSTGAAQLFEPDGYWRDLVLFTWNLKTLEGREQIAAMLAAQLGAVQPVSIRIADGEHAVEAGGVLQSWITVETNVARGVGFIRIRDGKIWTLLTTMSELKGFEEAKGGRRPMGAEHGARTDRSSWLEQREQEAKELGYARQPYCVIIGGGQGGIALGARLRQLNVPTIIIEKNARPGDSWRKRYKSLCLHDPVWYDHMPYIPFPDNWPVFTPKDKVGDWLEMYTKVMELNYWGSTSCESASFDAASGEWTVQVLRDGQPVTLKPKQLVLATGMSGKANMPKFKGMDVFQGEQQHSSQHPGPDAYAGKKVVVVGANNSAHDICAALWEAGVDVTMVQRSSTHIVKSDSLMDLALGDLYSERALAAGMTTNKADLTFASIPYKILANFQKPVFKAIRERDADFYARLEERGFMLDFGDDDSGLFMKYLRRGSGYYIDVGASELVAEGKIKLKSGVGVQELKSHSIVLSDGTELPADLVVYATGYGSMNGWAADLISPEVANKVGKVWGLGSATTKDPGPWEGEQRNMWKPTQQQALWFHGGNLHQSRHYSQYLSLQLKARMEGLNTPVYGQQEVHHLS
notes: full-length, codon-optimized in pET-28a(+)-TEV, E. coli ArcticExpress (DE3), C-terminal His-tag (stated for crystal structure); homodimer; SnoaL-like N-terminal domain, C-terminal helix residues 567-586

How the values were obtained:
[1] = biological target: type II flavin-containing monooxygenase from Janthinobacterium svalbardensis (Janthinobacterium svalbardensis PAMC27463); assay: SEC; size exclusion chromatography of purified JsFMO, with a calibration curve (Figure S2)
[2] = biological target: type II flavin-containing monooxygenase from Janthinobacterium svalbardensis (Janthinobacterium svalbardensis PAMC27463); assay: crystal structure; sitting-drop vapor diffusion in the cold room (4-8 °C); 16 mg/mL JsFMO, glycerol 20%, PEG 8000 13%, 100 mM Bis-Tris pH 6.5; four protomers forming two dimers in the asymmetric unit; FAD bound, no NADP+
purified protein [3] = substrate: NC(=O)C1=CN([C@@H]2O[C@H](COP(=O)(O)OP(=O)(O)OC[C@H]3O[C@@H](n4cnc5c(N)ncnc54)[C@H](O)[C@@H]3O)[C@@H](O)[C@H]2O)C=CC1; assay: purified protein; assay type: biochemical, Janthinobacterium svalbardense; conditions: 100 mM Tris-HCl pH 7.5, 500 mM NaCl, 10% glycerol, 1 mM DTT, 5 μM FAD, room temperature, co-substrate concentration not given
purified protein [4] = substrate: NC(=O)C1=CN([C@@H]2O[C@H](COP(=O)(O)OP(=O)(O)OC[C@H]3O[C@@H](n4cnc5c(N)ncnc54)[C@H](OP(=O)(O)O)[C@@H]3O)[C@@H](O)[C@H]2O)C=CC1; assay: purified protein; assay type: biochemical, Janthinobacterium svalbardense; conditions: 100 mM Tris-HCl pH 7.5, 500 mM NaCl, 10% glycerol, 1 mM DTT, 5 μM FAD, room temperature, co-substrate concentration not given
purified protein [5] = substrate: O=C1CC2C=CCC12; assay: purified protein; assay type: biochemical, Janthinobacterium svalbardense; conditions: 0.25 mM NADPH, 0.25-20 mM 1a, 100 mM Tris-HCl pH 7.5, 500 mM NaCl, 10% glycerol, 1 mM DTT, 5 μM FAD, room temperature

Molecule	stoichiometry N [1]	stoichiometry N [2]	Km (purified protein [3]) [µM]	kcat (purified protein [3]) [s^–1]	Km (purified protein [4]) [µM]	kcat (purified protein [4]) [s^–1]	Km (purified protein [5]) [µM]	kcat (purified protein [5]) [s^–1]
type II flavin-containing monooxygenase from Janthinobacterium svalbardensis (enzyme)	2	2	–	–	–	–	–	–
B1	–	–	78.5 ± 7.5	0.23 ± 0.1	14.4 ± 2.5	0.21 ± 0.1	1050 ± 230	0.29 ± 0.01
